± gives the standard deviation of the averaged measurements.
Columns and labels:
[1] = test system: Saccharomyces cerevisiae; test: protein stability index of tFT-peptide fusion (C-terminal peptide) (PSI (0-1 scale)); higher = more stable (slower turnover); conditions: genetic background: wild type; temperature: 30 C
[2] = test system: Saccharomyces cerevisiae; test: as above
Procedure: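 MPS profiling in S. cerevisiae of the tFT-X12 degron library: putative degron peptides plus stable controls, 12 aa, fused to the C-terminus of a sfGFP-mCherry timer. Cells are FACS-sorted into 8 mCherry/sfGFP bins and deep-sequenced. PSI runs from 0 (unstable) to 1 (stable). Backgrounds are wild type, das1Δ and doa10Δ at 30 °C, and wild type, das1Δ, cdc34-1 and cdc53-1 at 37 °C; 2-3 technical replicates each.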

[3] = genetic background: cdc34-1, temperature: 37 C
[4] = genetic background: cdc53-1, temperature: 37 C
[5] = genetic background: das1 deletion, temperature: 30 C
[6] = genetic background: das1 deletion, temperature: 37 C
[7] = genetic background: doa10 deletion, temperature: 30 C
[8] = genetic background: wild type, temperature: 30 C
[9] = genetic background: wild type, temperature: 37 C
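Further: PSI is a weighted mean of sequencing reads over stability bins, variants kept only with over 10 reads, mCherry proximal and sfGFP distal, peptide attached via GGGS linker.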

Sequence	protein stability index [1]	protein stability index [2, 3]	protein stability index [2, 4]	protein stability index [2, 5]	protein stability index [2, 6]	protein stability index [2, 7]	protein stability index [2, 8]	protein stability index [2, 9]
RRLAVWCDFRSL	0.45 ± 0.012	0.684 ± 0.054	0.75155 ± 0.00053	0.663 ± 0.018	0.7472 ± 0.00055	0.416 ± 0.0061	0.454 ± 0.035	0.653 ± 0.0095
RRPVHTHTSVSP	0.606 ± 0.25	0.7449 ± 0.00016	0.742 ± 0.05	0.652 ± 0.026	0.733 ± 0.0094	0.658 ± 0.022	0.6561 ± 0.0035	0.701 ± 0.012
RRRGIYARASVV	0.382 ± 0.015	0.636 ± 0.018	0.728 ± 0.019	0.647 ± 0.019	0.723 ± 0.017	0.249 ± 0.0044	0.276 ± 0.043	0.434 ± 0.023
RSITFFPVCLVK	0.382 ± 0.016	0.316 ± 0.079	0.389 ± 0.06	0.293 ± 0.029	0.491 ± 0.014	0.253 ± 0.021	0.289 ± 0.018	0.426 ± 0.013
RSLSFGMVLCYS	0.343 ± 0.029	0.358 ± 0.027	0.366 ± 0.0079	0.248 ± 0.041	0.4382 ± 0.0025	0.228 ± 0.012	0.253 ± 0.028	0.401 ± 0.012
RSLSWCTKRRCC	0.3718 ± 0.00091	0.595 ± 0.044	0.7011 ± 0.0057	0.675 ± 0.016	0.71892 ± 0.00035	0.221 ± 0.015	0.226 ± 0.022	0.454 ± 0.013
RSSGHLLDGRAF	0.539 ± 0.096	0.697 ± 0.03	0.739 ± 0.011	0.64 ± 0.02	0.752 ± 0.011	0.631 ± 0.029	0.654 ± 0.021	0.7353 ± 0.0026
RVGGVVVLGCVG	0.476 ± 0.0028	0.645 ± 0.03	0.711 ± 0.02	0.549 ± 0.013	0.684 ± 0.02	0.555 ± 0.027	0.5598 ± 0.0053	0.67072 ± 0.0004
RVGYSIIIIGIE	0.354 ± 0.0038	0.351 ± 0.026	0.433 ± 0.087	0.312 ± 0.042	0.48295 ± 0.00022	0.244 ± 0.0084	0.303 ± 0.019	0.457 ± 0.029
RVWIVCYHVSSY	0.262 ± 0.076	0.214 ± 0.016	0.3264 ± 0.00073	0.204 ± 0.024	0.371 ± 0.011	0.196 ± 0.0097	0.207 ± 0.0069	0.349 ± 0.022

From the supplement of paper PMC10724198
